# Results published in the supplement of paper PMC12042874.
# ± gives the uncertainty stated by the source.
# Assay: amyloid nucleation score (Sup35N fusion, yeast selection) (log enrichment); library NNK3; higher = more nucleation; inactive = no reads after selection
# Procedure, shortened: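 Sup35N fusions to peptides of 20 random codons were expressed in psi-negative yeast, induced 24 hours with 100 μM copper sulfate, and grown 7 days at 30°C on medium lacking adenine and uracil. Input and output plasmid inserts were sequenced by Illumina. The nucleation score is the DiMSum log enrichment of output over input reads, centred on the mode score of non-aggregating sequences. Sequences with under 100 input reads were excluded.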
row,Substance,amyloid nucleation score
1,SEKPIFSHPNLIYENGIGWI,inactive
2,SFRFYVERL,inactive
3,SKAMWLSLM,inactive
4,GNVQIDASIKKSNGRWYGSV,-0.063 ± 0.31
5,NRGSYVFMNRSEPVCSWISK,1.09 ± 0.1
6,ATRSLINQQCCRNYASKVLN,inactive
7,VCGAVSKPLWIRCTVDPRGR,inactive
8,RNIQWRFIP,inactive
9,YVRIQRMRFYSCEHWVHHIG,inactive
10,VNRNFILSSLVH,inactive
11,FCPPADGRVTGTCDLFLTNS,inactive
12,KLSWTPRLLNSYSLLEYVQD,inactive
13,DLCAEFWIYWHVTMPVYLEM,inactive
14,GVVSSSPMCVNSDREVVEKT,inactive
15,KSCLGKRLISSFC,inactive
16,TWDMSLT,inactive
17,TRRATGYFHFS,inactive
18,LINSNVNTVSLFIPFSRMED,1.58 ± 0.1
19,GNFCDCEDFHKGSAGLRWSG,inactive
20,RSERVRNSKLTVCVIYKYIK,inactive
21,GTVLNSLPQQVGCLRLGSQG,inactive
22,ITYKGLIWMSQGHVACRSRM,-0.008 ± 0.7
23,AFKNYVPMFTW,-0.335 ± 0.73

row,Substance,amyloid nucleation score
1,CRCKC,inactive
2,VLTLIFFYFRISCICPFLL,inactive
3,ISNLRYRSWAYLVRSFCSVL,inactive
4,NAEVALDHSSDLDS,inactive
5,YRYNNLKRCGNSAQWLAISS,-0.08 ± 0.34
6,IRLVMETLGNLGIADKSMRV,inactive
7,SGAFYAHHHLSRLLTDEDIS,inactive
8,VFISRKCWRNHNF,inactive
9,YATACGMILQKVVGKLTLLA,-0.395 ± 0.46
10,LKFEVVMVLFSTIC,inactive
11,VVTVARERYIVF,inactive
12,DRYLCVVKCSVVTGIDQMSM,inactive
13,RCIMRYCAKALCKVICSQWL,inactive
14,HSLHMGRKAMQYEYTQPAGI,inactive
15,NLDLWMQSCFHRVAVYS,inactive
16,FNVPS,0.673 ± 0.42
17,FDTFTMTEDSNPEKSECGLK,inactive
18,MNEGLYS,inactive
19,NREQLSSNKRNFASHRWTSV,inactive
20,FELYLQLN,0.478 ± 0.38
21,VQSSIESLPDPIFRYLQSIS,inactive
22,GTLVWNCDGCLDLKGRWVGG,inactive
23,VVCELCGSYYYIHCWDCNAS,2.75 ± 0.069

row,Substance,amyloid nucleation score
1,PVSAH,1.08 ± 0.17
2,EGTKEF,inactive
3,KWSNQGRCEHSVNMFHREWR,1.64 ± 0.09
4,LELGIYHLMERGIL,inactive
5,VGRAD,inactive
6,TILWFSSNETFYAGIHRSCP,inactive
7,IDQRWYCALQCHCREEINCR,inactive
8,TGDRIWTIGFFGEPNGVLKG,inactive
9,YVVREHYNGCATPN,inactive
10,SSFPYFTTYVHHVG,inactive
11,SISSEALVFYFRIAGTVIKR,inactive
12,WGLGAINIDMRRRLDPRCKR,0.312 ± 0.32
13,RCSDYHMR,inactive
14,YFYKNLSSFHFGKMRLK,inactive
15,HATGSMNVSVSAGVRQQILR,inactive
16,VERKNVLFRYHAVGFVLGDV,inactive
17,VIRIGDPILTV,inactive
18,YGSNSLPYKTGVYVKLSCN,inactive
19,MRIRIPTSNNEGYPIFMSAL,inactive
20,ELNIN,inactive
21,LFLIGLLGRCDGDFYCIYYT,1.04 ± 0.21
22,VKIYLSPTWEHIDRVYNCAL,1.59 ± 0.059
23,MNRMCVLLVNFCVDTD,1.9 ± 0.06

row,Substance,amyloid nucleation score
1,KKYFSVRWVTFWISRV,inactive
2,YSDLKSFLLNVIGRNKSIGM,inactive
3,IWVLSCRLISRTRFICDRRM,0.057 ± 0.93
4,MLVVWLFMWFIHINKRWDGA,inactive
5,RVNRSLGIVSIECRWVVIRG,inactive
6,GSYSNAHTPQF,0.695 ± 0.2
7,VYNRVHNCGMKVANYDTRDK,inactive
8,FDDYLKSYFKQYSNDHVG,inactive
9,SFLVSFTGVMLEFNCTCHLA,inactive
10,IRSSREFYMSVYRTEAWVLE,inactive
11,RLTVYISQRKKHHCLMERSH,0.221 ± 0.33
12,SESSNTELLSVLYIYAVWYL,inactive
13,PMHAIIKLYM,inactive
14,LSRRNFIRNNVVQ,inactive
15,LFGTFYPFSTTRFNVVKPDG,inactive
16,DGYKMCRDGIGWIGT,inactive
17,EIRMRMIKRFVYD,1.16 ± 0.17
18,TSDIAPFRDLLIASA,inactive
19,LMSLWLLLWGTEESALDMAD,inactive
20,RMENWLRCL,inactive
21,VCIPYMVVVFISSIP,1.72 ± 0.11
22,KFVLETFCHSKPRLVLVNHD,inactive
23,MNTACS,inactive

row,Substance,amyloid nucleation score
1,WLGPYVLHSSAGSGMVDNGT,inactive
2,IFLCI,inactive
3,SSNLNRFSITVFVVERHHQF,inactive
4,SFLSWVKYWERSCPDHSIWF,inactive
5,NHSSYG,inactive
6,IVHCWLMSGASVWTLQETPN,-0.105 ± 1.4
7,CPHMKLFRLLI,inactive
8,RSSFVWTSRHFVV,inactive
9,DSFNCDFNMCHDYVM,inactive
10,DFGKNSLWSSREDNLKYWFM,inactive
11,LNYDSSTRLNVLW,inactive
12,GIWSASRLKGNSLYCLLKNV,inactive
13,HIILFSIKSSKD,1.37 ± 0.12
14,SFQFMFSRSSNRDFCILIQR,inactive
15,YGSYVWYSLLVREWLNSPGY,inactive
16,LREVLCCVSTDSYVFILLRG,1.01 ± 0.14
17,FTWLSMYYCLRANERK,1.33 ± 0.15
18,PDHEMGSHLLV,inactive
19,SSERGMLVDNVLSHSWMFCI,1.35 ± 0.13
20,VAKLKRTWTVWLVIYSRKSW,inactive
21,MYERRSLDKKVHRCYILALT,inactive
22,GVWRLATHGYSQ,inactive
23,MFKITACIFNIAYSSWFFST,inactive

row,Substance,amyloid nucleation score
1,VFPFSSFFKFLQRSWCGRDE,1.22 ± 0.12
2,PTAESPLMPFNA,-0.478 ± 0.69
3,SLFSGVYSFYY,inactive
4,YSGLDSCVD,inactive
5,HFILFSSYPFYF,inactive
6,VYSFTAKHRYSWFVCNDGVK,inactive
7,LERVSVSTQYLRLHLDLNSF,inactive
8,DIWYRIKMFSIWKFMSHTTG,inactive
9,LPAGFKSR,inactive
10,RGTRTGPRDRTLFMSKAVRS,0.364 ± 0.39
11,SCKRPVTVWACDQVRYDRFP,inactive
12,NENPDNYLRIAVWTTFFSFC,1.57 ± 0.095
13,LNSYSLNWRRCMGVQHSLYP,inactive
14,ESYINLDIHNYIKTIILSLA,inactive
15,CFAFGW,inactive
16,GLVSVLSDEMYCFWQYSCYS,1.91 ± 0.091
17,VSSTVGMV,0.175 ± 0.29
18,IRFSKTLRVIVHGEGNGKLC,inactive
19,VREMGLTHFTASLYRGEMPG,inactive
20,TFIFDFAAFMNMVNGFSVLG,2.23 ± 0.088
21,LNYMSDFYLLLSERTCVYYQ,0.754 ± 0.16
22,GVITISREDQYLAVGVIQWI,inactive
23,KLGKESRSFLMTTRNVDRRF,1.43 ± 0.11

row,Substance,amyloid nucleation score
1,HYHSWFPTYSYSYYV,2.71 ± 0.08
2,GYYLLTVCGDWCSVSVHSGF,2.13 ± 0.078
3,YGETAMRRSLTSLYNHMSLN,inactive
4,WFVSSWKNSHLKCGL,inactive
5,FGTPMVNVCMPS,inactive
6,IMYTRAYLFYTRDHCLFIRV,inactive
7,VAWAASARRHMYIPDRDSCA,inactive
8,VIHSLLALTDLMSKSYLTIY,inactive
9,MLSFLYRELN,inactive
10,VLYGTSASWSEFEFDHVIHV,inactive
11,TRIFVCVFVCTTPTMHAPIW,0.921 ± 0.23
12,PGTIYVGCRLLIYGTNTADL,inactive
13,CVLNW,inactive
14,CNRVPVFFMFYVEQGVLRWN,2.13 ± 0.081
15,NFTSRSAVLVR,2.21 ± 0.07
16,CQFFQFDLNYEFKLVSRAHK,inactive
17,CDVQKSLGCHTCWGRDWWNR,inactive
18,YWQWSNV,inactive
19,DMNSACCVWHSVFYSEFYVI,2.19 ± 0.069
20,LYTDVEYRVWCVTFLVRPSK,inactive
21,YYSMTKNARCGHSFEAKSLF,inactive
22,WHMWVLKYIFAGLVHSSPWG,inactive
